# Reference: IntAct's records for PubMed 11565033
# B1: F-box/WD repeat-containing protein 7 (Drosophila melanogaster (Fruit fly)), Q9VZF4 (parent)
# chain: MERGCPAASSESVTSAGERTQSAVTSSTSTWVKSQASTSRKTEASEESGLGAVDAEVGAGREAFVSMSTLREDVEDVCVSSNSQHGFAVVLDDESSTFEISSSNSLPTSAGAASTVGVVAVDDSSSTDTLNGGHPDLGHPASSEHSRQGFFNEDNEDPPVVCLINDDDDDEEPEPEEDDEEELIEDEDEDAVDIVTGAISCPNTSQLALADGTIMAADGSKIFLETPVVEEAQPHPGQVVTTGSQSELTGKPKRLSDEFLLGEEDQAENLALGRCIKSEPVNPVDDNPSEGDDGATCFSLHDRLMSVRLKQMSLTANTVSNPSPAASANAAAPEEASTSNSSSTSSSALSRADIESMDLIERRDFETEQRLTGGIILRTSSMVSQNKLNLSLIKSMAGGSKAANGSGTANSDDWPSSSNGRTVSSDSKYTYKDLSTTPTSSRKYTNSRLSKSTAKLNLGSSLGASSCSQHRSGSSSTSKSMESSTSCTGAARTDVYTNTNSNDYPSLAPTTSGSSTSGGSCQQDQEENVSASVSYSSVGSQTSQESGCSRTTAINPTAACSTGSACLGDSQASTSASTSSGAGASNRCQYATTSTTKAARQVNASAQTQERFLTRSNPPAASGAGSVGANPTASVRQRRNGSSDVVHLEVVVEEGAGGGDGGVVEPGDFSAEEPWANCDEENNCSDLEEICTCQNGNGSSYGGSNASLSETFDMDAMDPDEPISLSLSSASAGFTEYSLTNPSSLMSHQRKRKFNEGRLLDGGDYSVTISSSGEVGGPGSGVSDNCRKRIAYDFASTPRSSQHLGPTAVLSVTPSSHLTSSTPGSALGRRTPRSVPSRDNPPPELQHWLAQFQRWSHVERLLALDRLIDHCDPSQVRHMMKVIEPQFQRDFISLLPRELALFVLSYLEPKDLLRAAQTCRSWRFLCDDNLLWKEKCRKAQILAEPRSDRPKRGRDGNMPPIASPWKAAYMRQHIIEMNWRSRPVRKPKVLKGHDDHVITCLQFSGNRIVSGSDDNTLKVWSAVNGKCLRTLVGHTGGVWSSQMSGNIIISGSTDRTLKVWDMDSGACVHTLQGHTSTVRCMHLHGSKVVSGSRDATLRVWDIEQGSCLHVLVGHLAAVRCVQYDGKLIVSGAYDYMVKIWHPERQECLHTLQGHTNRVYSLQFDGLHVVSGSLDTSIRVWDVETGNCKHTLMGHQSLTSGMELRQNILVSGNADSTVKVWDITTGQCLQTLSGPNKHHSAVTCLQFNSRFVVTSSDDGTVKLWDVKTGDFIRNLVALDSGGSGGVVWRIRANDTKLICAVGSRNGTEETKLMVLDFDVEGACVKCS
# partner: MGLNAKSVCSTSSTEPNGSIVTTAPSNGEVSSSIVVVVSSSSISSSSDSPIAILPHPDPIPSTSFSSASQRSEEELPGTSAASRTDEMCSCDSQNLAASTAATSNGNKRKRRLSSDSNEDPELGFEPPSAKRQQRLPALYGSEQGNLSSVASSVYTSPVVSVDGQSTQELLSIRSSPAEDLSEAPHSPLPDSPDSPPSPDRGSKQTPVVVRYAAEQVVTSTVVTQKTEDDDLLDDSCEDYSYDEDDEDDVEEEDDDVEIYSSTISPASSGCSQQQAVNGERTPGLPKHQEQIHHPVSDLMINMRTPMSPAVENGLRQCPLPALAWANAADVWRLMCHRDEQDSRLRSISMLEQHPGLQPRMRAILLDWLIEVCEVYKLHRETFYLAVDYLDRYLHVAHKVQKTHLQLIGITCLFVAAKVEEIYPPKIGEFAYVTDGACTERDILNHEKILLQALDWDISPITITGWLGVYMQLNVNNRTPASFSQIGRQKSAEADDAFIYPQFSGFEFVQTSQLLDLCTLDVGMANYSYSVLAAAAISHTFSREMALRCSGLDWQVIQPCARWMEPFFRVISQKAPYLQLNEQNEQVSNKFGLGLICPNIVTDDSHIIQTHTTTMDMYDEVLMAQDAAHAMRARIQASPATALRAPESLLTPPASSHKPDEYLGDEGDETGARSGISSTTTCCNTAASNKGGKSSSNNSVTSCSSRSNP
# Variants of: B1
# Conditions: with ccne_drome CycE
row,effect of a mutation on the interaction,Variant
1,decreasing interaction,G1131E
